From US20070081998A1 (published 2007)
Numbering of substitutions follows the chain as printed.

Legend:
biotin-Aβ1-20 [1] = target: T1, biotin-Aβ1-20 (UniProt P05067 672-691, not fully specified; biotin (site not stated)); test: BIACORE
T1 construct: domain: Aβ1-20; BIACORE antigen standing for monomeric Aβ peptide; also called biotinylated-Aβ1-20
T1 peptide (looked up): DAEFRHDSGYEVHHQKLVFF

[2] = target: T2, biotinylated ADDL (bADDL) (UniProt P05067 672-713, N-terminal biotin); test: cell-based or functional assay
[3] = target: T3, Aβ-derived diffusible ligands (ADDLs) (UniProt P05067 672-713); test: ELISA; reference is binding of the same antibody to Aβ40 monomer
T3 construct: domain: Aβ1-42; Soluble oligomers of Aβ1-42
Procedure: Affinity maturation was carried out to improve affinity and improve preferential binding to ADDL. To evaluate ADDL binding affinity of the humanized antibodies, BIACORE™ and titration ELISAs were conducted as disclosed herein. Briefly, Streptavidin-coated, 96-well microtiter plates (Sigma, St. Louis, Mo.) were coated with 10% biotinylated ADDL antigen (1 μM). A series of 2-fold dilutions of purified antibody, starting at 500 ng/mL was added to the ADDL captured plates and the plates were incubated for 2 hours at 25° C. […] A rabbit anti-goat IgG (H+L) HRP-conjugated (Bethyl Laboratories, Inc., Montgomery, Tex.) detection antibody was then added at a 1/2000 dilution in blocking solution and incubated for 1 hour at room temperature. After washing with PBS, HRP substrate, 3,3′,5′5-tetramethylbenzidine (ready-to-use TMB; Sigma, St. Louis, Mo.) was added and the reaction was stopped after 10 minutes with 0.5 N H₂SO₄. Absorbance at wavelength of 450 nm was read in a plate reader (model VICTOR V; Perkin Elmer, Boston, Mass.) and data were processed using EXCEL® work sheet.

[4] = target: T2, biotinylated ADDL (bADDL); test: BIACORE, bADDL as antigen; column IgG1 #2
[5] = target: T2, biotinylated ADDL (bADDL); test: BIACORE, bADDL as antigen; column IgG1 #1
[6] = target: T2, biotinylated ADDL (bADDL); test: BIACORE, bADDL as antigen; column Fab
biotin-Aβ1-20 [7] = target: T1, biotin-Aβ1-20; test: BIACORE, Fab fragment against biotinylated-Aβ1-20
[8] = target: T2, biotinylated ADDL (bADDL); test: BIACORE, Fab fragment against bADDL

B1: Hu20C2A3 (veneered version of clone A3, IgG2m4 isotype) (antibody, V domains shown)
VH: QVTLKESGPGLLKPTQTLTLTCTLSGFSLSTSGMGVGWFRQPPGKGLEWLAHIWWDDDKSYNPSLKSRLTISKDTSKNQVVLTITNVDPVDTATYYCARRQLGTRGTDAMDYWGQGTTVTVSS
VL: DVVMTQTPLSLPVTPGQPASISCRSSQSILHSNGNTYLEWYLQKPGQSPQLLIYKVSNRFSGVPDRFSGSGSGTDFTLKISRVEAEDVGVYYCLQTTRVPLTFGQGTKLEIKR
notes: to be checked against the listing; also called Hu20C2A3 produced in CHO; Hu20C2A3 produced in Pichia
binding result (biotin-Aβ1-20 [1]): binds | inhibition of bADDL binding to primary hippocampal neurons (alkaline phosphatase-streptavidin luminescence) [2]: 0.16 antibody to peptide ratio | fold preference for ADDL binding versus Aβ40 monomer binding [3]: 6 fold

B2: 20C2-6A IgG1 (antibody, V domains shown)
VH: B1 VH with G10A, L12V, L24F, F39I, G46A, I84M, V87M, T104L, G106S, T107I
VL: DVVMTQSPLSLPVTPGEPASISCRSSQSILHSNGNTYLEWYLQKPGQSPQLLIYKVSNRFSGVPDRFSGSGSGTDFTLKISRVEAEDVGVYYCFQSSRVPLTFGQGTKLEIK
notes: IgG1 humanized A version; also called 4P1-22
Kd [4]: 0.024 nM | Kd [5]: 0.0043 nM

B3: clone A3 humanized by veneering, full IgG1 molecule (antibody, V domains shown)
VH: B1 VH
VL: B2 VL with S7T, E17Q, F94L, S96T, S97T
notes: also called Hu20C2A3 IgG1/kappa version
binding result (biotin-Aβ1-20 [1]): binds

B4: 20C2-5A Fab (Fab, V domains shown)
VH: B1 VH with G10A, L12V, L24F, F39I, G46A, I84M, V87M, T104L, G106S, T107I
VL: B1 VL with T7S, Q17E, L94F, T96S, T97S, R98F
Kd [6]: 41 nM

B5: 20C2-2A Fab (Fab, V domains shown)
VH: B1 VH with G10A, L12V, L24F, F39I, G46A, I84M, V87M, T104L, G106S, T107I
VL: B1 VL with T7S, Q17E, L94F, T96A
Kd [6]: 28 nM

B6: 20C28B Fab (Fab, V domains shown)
VH: B1 VH with G10A, L12V, F39I, G46A, I84M, V87M, T104L, G106S, T107I
VL: B1 VL with T7S, Q17E
Kd (biotin-Aβ1-20 [7]): 1.1 nM | Kd [8]: 1.1 nM

B7: 4b-A7 Fab (Fab, V domains shown)
VH: B1 VH with G10A, L12V, F39I, G46A, I84M, V87M, T104K, R105L, G106A, T107L
VL: B1 VL with T7S, Q17E
Kd (biotin-Aβ1-20 [7]): 1.72 nM | Kd [8]: 0.376 nM

B8: 20C2-6A Fab (Fab, V domains shown)
VH: B1 VH with G10A, L12V, L24F, F39I, G46A, I84M, V87M, T104L, G106S, T107I
VL: B1 VL with T7S, Q17E, L94F, T96S, T97S
Kd [6]: 42 nM

B9: 4b-H11 Fab (Fab, V domains shown)
VH: B1 VH with G10A, L12V, F39I, G46A, I84M, V87M, T104R, G106S, T107V
VL: B1 VL with T7S, Q17E
Kd (biotin-Aβ1-20 [7]): 1.33 nM | Kd [8]: 1.05 nM

B10: 4a-A3 Fab (Fab, V domains shown)
VH: B1 VH with G10A, L12V, F39I, G46A, I84M, V87M
VL: B1 VL with T7S, Q17E
Kd (biotin-Aβ1-20 [7]): 0.849 nM | Kd [8]: 0.0823 nM

B11: 20C2-6B IgG1 (antibody, V domains shown)
VH: B1 VH with G10A, L12V, F39I, G46A, I84M, V87M, T104L, G106S, T107I
VL: B2 VL
notes: IgG1 humanized B version; also called 4P1-22
Kd [5]: 0.053 nM

B12: 20C2-8A IgG1 (antibody, V domains shown)
VH: B1 VH with G10A, L12V, L24F, F39I, G46A, I84M, V87M, T104L, G106S, T107I
VL: B2 VL with F94L, S96T, S97T
notes: IgG1 humanized A version; also called SJ-p2-39
Kd [4]: 0.0007 nM | Kd [5]: 0.003 nM

B13: 20C2-2A IgG1 (antibody, V domains shown)
VH: B1 VH with G10A, L12V, L24F, F39I, G46A, I84M, V87M, T104L, G106S, T107I
VL: B2 VL with S96A, S97T
notes: IgG1 humanized A version; also called SJ-p1-18
Kd [4]: 0.0003 nM | Kd [5]: 0.015 nM

B14: 20C2-5A IgG1 (antibody, V domains shown)
VH: B1 VH with G10A, L12V, L24F, F39I, G46A, I84M, V87M, T104L, G106S, T107I
VL: B2 VL with R98F
notes: IgG1 humanized A version; also called SJ-p2-1F
Kd [4]: 0.068 nM | Kd [5]: 0.317 nM

B15: 20C2-1A IgG1 (antibody, V domains shown)
VH: B1 VH with G10A, L12V, L24F, F39I, G46A, I84M, V87M, T104L, G106S, T107I
VL: B2 VL with S96A
notes: IgG1 humanized A version; also called SJ-p2-60
Kd [5]: 0.075 nM

B16: 20C2-3A IgG1 (antibody, V domains shown)
VH: B1 VH with G10A, L12V, L24F, F39I, G46A, I84M, V87M, T104L, G106S, T107I
VL: B2 VL with S96G, R98F, V99I, L101G
notes: IgG1 humanized A version; also called SJ-p3-16
Kd [5]: 3.7 nM

B17: 20C2-24A IgG1 (antibody, V domains shown)
VH: B1 VH with G10A, L12V, L24F, F39I, G46A, I84M, V87M, T104L, G106S, T107I
VL: B2 VL with F94G, S96T, S97T, R98L
notes: IgG1 humanized A version; also called SJ-p2-44
Kd [5]: 0.114 nM

B18: 20C2-8B IgG1 (antibody, V domains shown)
VH: B1 VH with G10A, L12V, F39I, G46A, I84M, V87M, T104L, G106S, T107I
VL: B2 VL with F94L, S96T, S97T
notes: IgG1 humanized B version; also called SJ-p2-39
Kd [4]: 0.0008 nM | Kd [5]: 0.013 nM

B19: Mouse-20C2 Fab (Fab, V domains shown)
VH: QVTLKESGPGILKPSQTLSLTCSLSGFSLSTSGMGVGWFRQPSGKGLEWLAHIWWDDDKSYNPSLKSRLTISKYTSRNQVFLTITSVDTADTATYYCARRQLGLRSIDAMDYWGQGTSVTVSS
VL: DVLMTQTPLSLPVSLGDQASISCRSSQSILHSNGNTYLEWYLQKPGQSPKLLIYKVSNRFSGVPDRFSGSGSGTDFTLKISRVEAEDLGVYYCFQGSLVPLTFGAGTKLELK
notes: Value in the Fab column of the row Mouse-20C2; also called murine 20C2
Kd [6]: 62 nM

B20: Mouse-20C2 antibody (IgG1) (antibody, V domains shown)
VH: B19 VH
VL: B19 VL
notes: value in the column IgG1 #1; also called murine 20C2
Kd [5]: 4.1 nM
